Measurements from publication PMC7015811.

How the values were obtained:
[1] = biological target: chCALHM1 hCALHM2 chimera (chicken | human) (UniProt Q9HA72); assay: cryo-EM structure
chicken CALHM1 (chicken) = assay: cryo-EM structure

Substance | stoichiometry N [1] | stoichiometry N (chicken CALHM1 (chicken))
chCALHM1 hCALHM2 chimera (from UniProt Q9HA72 205-323) | 11 | –
chicken CALHM1 (natural protein) | – | 8
